Changes are numbered by the printed parent chain. Where two headings read alike, the source gives them in different places. A value given as a limit tells only on which side of the number the result lay.

Targets include rHK68_D19N H3 HA (influenza A virus); rHK68_A196T H3 HA (influenza A virus); rHK68_I18R H3 HA (influenza A virus); rHK68_I45N H3 HA (influenza A virus); rHK68_Q42R H3 HA (influenza A virus); rHK68_D19Y H3 HA (influenza A virus); rHK68_K156Q H3 HA (influenza A virus); rHK68_I45T H3 HA (influenza A virus).
What all share (test): cell-based or functional assay
In experiment [1] the target is T1, HA of A/Puerto Rico/8/34 (H1N1) (influenza A virus, UniProt P03452 18-565).
Experiment [2] addresses HA of ca A/Wuhan/359/95 (H3N2) (influenza A virus).
Experiment [3] deals with T1, HA of A/Puerto Rico/8/34 (H1N1). The source holds these as a separate data set.
Experiment [4] deals with HA of ca A/Wuhan/359/95 (H3N2) (influenza A virus). The source holds these as a separate data set.

T1 sequence (P03452 18-565 limits assumed): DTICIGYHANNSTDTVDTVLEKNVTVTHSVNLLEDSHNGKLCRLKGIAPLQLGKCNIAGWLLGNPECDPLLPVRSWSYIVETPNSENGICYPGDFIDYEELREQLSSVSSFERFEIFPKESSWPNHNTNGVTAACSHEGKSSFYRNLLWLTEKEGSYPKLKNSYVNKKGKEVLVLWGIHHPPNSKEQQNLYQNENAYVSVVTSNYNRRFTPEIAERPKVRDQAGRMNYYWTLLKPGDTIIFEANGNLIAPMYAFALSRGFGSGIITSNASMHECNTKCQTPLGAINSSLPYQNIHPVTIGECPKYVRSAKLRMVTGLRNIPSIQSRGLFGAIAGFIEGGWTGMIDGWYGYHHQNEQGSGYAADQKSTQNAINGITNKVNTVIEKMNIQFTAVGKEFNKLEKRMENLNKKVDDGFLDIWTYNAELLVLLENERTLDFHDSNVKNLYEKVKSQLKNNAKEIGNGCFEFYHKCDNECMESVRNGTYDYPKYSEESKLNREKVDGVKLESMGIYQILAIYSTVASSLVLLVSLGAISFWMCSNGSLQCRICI

B1: Antibody 3 (antibody, V domains shown)
VH: QVQLQESGPGLVKPSQTLSLTCAISGDSVSSNNAVWNWIRQSPSRGLEWLGRTYYRSKWYNDYAESVKSRITVNPDTSKNQFSLHLKSVTPEDTAVFYCVRSGHITVFGVNVDAFDMWGQGTMVTVSS
VL: DIQMTQSPSSLSASVGDRVTITCRTSQSLSSYLHWYQQKPGKAPKLLIYAASSLQSGVPSRFSGSGSGTDFTLTISSLQPEDFATYYCQQSRTFGQGTKVEIK
In the case of B1, in [1], the “Neutralization IC50, H1-PR34” value was determined as 2.17 µg/mL and the “Neutralization IC50, H1-PR34-OR” value came to 1.39 µg/mL. In addition, in [2], the “Neutralization IC50, H3-WH95” value was determined as 5.63 µg/mL and the “Neutralization IC50, H3-WH95-OR” value came out at 7.7 µg/mL. Besides, the “Neutralization IC50, H1-PR34” value in experiment [3] is 1.07 µg/mL. Further, the “Neutralization IC50, H3-WH95” value in experiment [4] stood at 3.96 µg/mL.

B2: Antibody 11 (antibody, V domains shown)
VH: B1 VH with E6Q, N32Y, K58G, V73I, H85Q, K87N, F97Y, V100A
VL: B1 VL with L33T, L54R, Q55L
As to B2, in experiment [1], the “Neutralization IC50, H1-PR34” value was determined as 0.88 µg/mL and the “Neutralization IC50, H1-PR34-OR” value was 0.73 µg/mL. Further, in [2], the “Neutralization IC50, H3-WH95” value amounted to 2.45 µg/mL and the “Neutralization IC50, H3-WH95-OR” value was 2.26 µg/mL.

B3: Antibody 10 (antibody, V domains shown)
VH: QVQLQQSGPGLVKPSQTLSLTCAISGDSVSSNSATWNWIRQSPSRGLEWLGRTYYRSKWYNDYADFLKRRITINPDTSNNEVSLRLTSVTPDDTALYYCARGGHITVFGVNIDAFDVWGQGTMVTVSS
VL: B1 VL with V19I, T22S, S30R, A51S, S53T, S77N, Q90L
As to B3, the “Neutralization IC50, H1-PR34” value in experiment [3] worked out at 2.15 µg/mL. In experiment [4], the “Neutralization IC50, H3-WH95” value came to 8.7 µg/mL.

B4: Antibody 12 (antibody, V domains shown)
VH: B1 VH with E6Q, N32Y, K58G, V73I, H85Q, K87N, F97Y, V100A
VL: B1 VL with L33T, L54R, Q55G
As to B4, the “Avg. Neut., microneutralization” value is 3.04 µg/mL with rHK68_D19N H3 HA; 4.06 µg/mL with rHK68_A196T H3 HA; > 200 µg/mL with rHK68_I18R H3 HA; 1.94 µg/mL with rHK68_I45N H3 HA; 11.1 µg/mL with rHK68_Q42R H3 HA; > 200 µg/mL with rHK68_D19Y H3 HA. In addition, the “Avg. Neut., microneutralization” value in the experiment with rHK68_K156Q H3 HA came out at 3.33 µg/mL; with rHK68_I45T H3 HA it was 3.38 µg/mL. For the same molecule, the “Neutralization IC50, H1-PR34” value in [1] is 1.07 µg/mL. In experiment [1], the “Neutralization IC50, H1-PR34-OR” value was found to be 0.69 µg/mL. Besides, in [2], the “Neutralization IC50, H3-WH95” value stood at 2.09 µg/mL. In addition, the “Neutralization IC50, H3-WH95-OR” value in experiment [2] amounted to 2.34 µg/mL.

B5: Antibody 14 (antibody, V domains shown)
VH: B1 VH with E6Q, V73I, H85Q, K87N, F97Y, V100A, M123T
VL: B1 VL with L33T, L54R, Q55L
For B5, in experiment [1], the “Neutralization IC50, H1-PR34” value came to 1.25 µg/mL and the “Neutralization IC50, H1-PR34-OR” value came to 0.83 µg/mL. Besides, in experiment [2], the “Neutralization IC50, H3-WH95” value is 2.77 µg/mL and the “Neutralization IC50, H3-WH95-OR” value came to 3.09 µg/mL.

B6: Antibody 13 (antibody, V domains shown)
VH: B1 VH with E6Q, N32Y, K58G, V73I, H85Q, K87N, F97Y, V100A
VL: B1 VL with L33D, L54R, Q55L
In the case of B6, in experiment [1], the “Neutralization IC50, H1-PR34” value amounted to 1.3 µg/mL and the “Neutralization IC50, H1-PR34-OR” value is 0.88 µg/mL. Further, in [2], the “Neutralization IC50, H3-WH95” value stood at 2.77 µg/mL and the “Neutralization IC50, H3-WH95-OR” value is 3.01 µg/mL.

B7: Antibody 15 (antibody, V domains shown)
VH: B1 VH with E6Q, V73I, H85Q, K87N, F97Y, V100A, M123T
VL: B1 VL with L33T, L54R, Q55G
Take B7: in experiment [1], the “Neutralization IC50, H1-PR34” value came out at 1.47 µg/mL and the “Neutralization IC50, H1-PR34-OR” value is 0.9 µg/mL. In addition, in [2], the “Neutralization IC50, H3-WH95” value turned out to be 3.32 µg/mL and the “Neutralization IC50, H3-WH95-OR” value stood at 3.48 µg/mL.

B8: Antibody 5 (antibody, V domains shown)
VH: QVQLQQSGPGLVKPSQTLSLTCAISGDRVSSNSAVWNWIRQSPSRGLEWLGRTYYRSKWYYDYAESVKSRIVIDPDTSKNQVSLQLNSVTPEDSAIYYCARGGHITVFGLNIDAYDIWGQGAMVTVSS
VL: DIQMTQSPSSLSASVGDRVTISCRAQSLSSYLHWYQQKPGQPPKLLIYAATTLQSGVPSRFSGSGSGTDFTLTISTFQAEDVATYYCQQSRTFGQGTKVEIK
For the molecule B8, the “Neutralization IC50, H1-PR34” value in experiment [3] was found to be 1.13 µg/mL. The “Neutralization IC50, H3-WH95” value in experiment [4] came out at 3.72 µg/mL.

B9: Antibody 6 (antibody, V domains shown)
VH: B8 VH with V107E
VL: B8 VL
B9: the “Neutralization IC50, H1-PR34” value in experiment [3] was 4.37 µg/mL. In experiment [4], the “Neutralization IC50, H3-WH95” value is 10.5 µg/mL.

B10: Antibody 8 (antibody, V domains shown)
VH: QVQLQQSGPGLVKPSQTLSLTCVISGDTVSSNRATWNWMRQSPLRGLEWLGRTYYRSKWYNDYAVSVKSRVVINPDTSKNQVSLQLNTVTPDDSGVYFCARGGHITVFGVNIDAFDIWGLGTKVTVSS
VL: DIQMTQSPSSLSASVGDRVTISCRASQRLNSYLHWYQQTPGQAPKLLIYATSTLQSGVSPRFSGSGSGTDFTLTISSLQPEDVATYYCQLSRTFGHGTKVEIK
Turning to B10, the “Neutralization IC50, H1-PR34” value in experiment [3] was 3.02 µg/mL. For the same molecule, in experiment [4], the “Neutralization IC50, H3-WH95” value was > 50 µg/mL.

These data come from patent publication US20160257732A1 (published 2016).
